The results in this text go back to patent publication US8629106B2, “Affinity peptides toward BMP-2” (Janssen Biotech, Inc., priority 2010, dated 2014).

No end group written: not given here.

In one experiment the target is T1, BMP-2 (Homo sapiens, UniProt P12643).
T1 construct: purchased R&D Systems 355-BM/CF
T1 sequence (P12643 283-396): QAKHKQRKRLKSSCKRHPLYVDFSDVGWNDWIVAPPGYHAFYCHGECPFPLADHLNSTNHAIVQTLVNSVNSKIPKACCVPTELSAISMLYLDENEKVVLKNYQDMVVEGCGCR
Put plainly: Mutant phage ELISA (serine scan). Particulars: FIG. 11A, FIG. 11B. In kind it is binding. An excerpt:
Mutants of SEQ ID NO: 3 and SEQ ID NO: 6 were constructed by performing a serine scan where residues of the wild type were substituted with serine. […] SEQ ID NO: 24 through SEQ ID NO: 28 are mutants of SEQ ID NO: 3. SEQ ID NO: 29 through SEQ ID NO: 32 are mutants of SEQ ID NO: 6.
The respective custom oligonucleotide was obtained from Integrated DNA Technologies. The oligonucletides were inserted into the pIX gene using standard protocols. First, the oligonucletides were phosphorylated using T4 polynucleotide kinase. Next, the phosphorylated oligonucletides were annealed to the ssDNA template. Using the Kunkel method, the annealed DNA was ligated using T4 DNA ligase and T7 DNA polymerase. The resultant DNA was isolated using isopropanol precipitation and a gel was run to confirm the reaction. Lastly, electro-competent E. coli cells were transformed with the purified DNA and were plated out onto 2xYT/Tet/Xgal agar plates and allowed to grow overnight to isolate single colonies. An aliquot of the transformed cells was allowed to grow overnight at 37° C. while shaking in 50 mL 2xYT/tet media. The phage were then PEG precipitated following the procedure in Example 1. A phage titration was performed to determine the concentration of phage for the ELISA assay as described in Example 2. ELISA assays were performed following the procedure in Example 3.
In general terms: An ELISA detects its analyte on a solid surface through an enzyme-linked reagent.

In the next experiment the test system is hIgG. Put plainly: Cross-reactivity phage ELISA assay toward hIgG. Particulars: relative luminescence, N=2. In kind it is binding, human. The method, then:
(§1) In this experiment, we are confirming the binding of the phage identified in Example 1 to BMP-2.
(§2) 96-well black ELISA plates were coated with streptavidin (Rows A through D), hIgG (Rows E and F) and human serum albumin (Rows G and H), at a concentration of 5 micrograms/mL in PBS. Plates were incubated overnight at 4° C. Plates were washed 3 times with TBST using a plate washer. To the streptavidin-coated wells in rows C and D, 100 microliters of a 4 micrograms/mL solution of biotinylated-BMP-2 (R&D Systems, Minneapolis, Minn., Item number 355-BM/CF), was introduced and allowed to sit at room temperature for 30 minutes. To all other wells, 100 microliters of PBS was introduced. The plates were again washed 3 times with TBST using the plate washer. The wells were then blocked with 250 microliters of a 3% dehydrated milk suspension in TBST and allowed to sit at room temperature for a minimum of 1 hour. Using phage concentrations determined by the phage titrations, dilutions of the phage stock solutions were performed in a separate 96-well plate to result in phage concentrations of 10^10, 10^9, 10^8, 10^7, 10^6 and 10^5 phage/well. […] The luminescence was read using a luminometer set with a gain of 150.
(§3) The phage ELISA data in FIG. 3, FIG. 4 and FIG. 5 show relative luminescence and have an N value of 2. […]

Experiment [1] concerns the target human serum albumin (HSA) (Homo sapiens, UniProt P02768). The experiment in a line: Cross-reactivity phage ELISA assay toward human serum albumin. In kind it is binding. Conditions: relative luminescence, N=2. The procedure: as §1, §2, §3
The next experiment has as its target T2, biotinylated BMP-2 (Homo sapiens, UniProt P12643).
T2 construct: purchased R&D Systems 355-BM/CF
T2 sequence (P12643 283-396): T1 sequence (P12643 283-396)
Put plainly: Amplified luminescent proximity homogenous assay (ALPHA). In kind it is binding. Particulars: chemically synthesized peptides, FIG. 6, normalized to molar concentration. The procedure:
Concentration dependent binding efficiency of BMP-2 to the affinity peptides was evaluated using an ALPHA assay.
Diluted stock of biotinylated BMP-2 (R&D Systems, Minneapolis, Minn., Item number 355-BM/CF) at 3.3 micrograms/ml was prepared in 2× assay buffer (PBS, 0.01% Tween-80, 0.05% BSA). Chemically synthesized peptides having SEQ ID NO: 1, SEQ ID NO: 2, SEQ ID NO: 3, and SEQ ID NO: 6 were prepared using standard, automated Fluorenylmethyloxycarbonyl (Fmoc) solid phase peptide synthesis procedures. Each peptide solution for the assay was prepared from a 100 microgram/mL stock solution. The stock solution was serially diluted in ½ log steps in assay buffer resulting in peptide concentrations of 100, 33.3, 11.1, 3.70, 1.23, 0.41, 0.14, 0.046, 0.015, 0.0051, 0.0017 and 0.00056 micrograms/mL. Subsequently, serially diluted peptides were added to the corresponding wells containing the 10 microliters of the 3.3 microgram/mL solution of biotinylated BMP-2. Final assay test concentration for biotinylated BMP-2 was 0.825 micrograms/mL. Final peptide concentrations were 25, 8.3, 2.8, 0.93, 0.31, 0.10, 0.03, 0.01, 0.003, 0.001, 0.0003 and 0.0001 micrograms/mL. Next, Nickel (Ni)-acceptor and streptavidin (SA)-donor beads (Perkin Elmer, Waltham, Mass., Item number 6760619M) were diluted 1:100 in assay buffer prior to adding 20 microliters to each test well. Controls included BMP-2 alone in three different concentrations as well as SA beads with no peptide. The plate was made light-safe with an aluminum seal and shaken for 45 minutes on a table-top shaker at room temperature. The emission of the plate was read using a dual wavelength fluorometer (Perkin Elmer (Waltham, Mass.) Envision 2101 Multilabel Reader).
The ALPHA data in FIG. 6 was normalized to molar concentration based on the molecular weights of the peptide sequences.

Experiment [2] concerns MCHT-1/26 cells (mouse osteoblast cell line). Put plainly: Alkaline phosphatase bioactivity assay in the presence of BMP-2. In kind it is cell-based. Conditions: peptide at 16, 160 and 800 nM, BMP-2 0-1000 ng/ml, 3 days, FIG. 7. The method, then:
In this experiment, we determined if the affinity peptides would interfere with the cell surface receptor binding to BMP-2 using mouse osteoblasts. The alkaline phosphatase (ALP) production was monitored the presence of BMP-2 with and without affinity peptides.
Passage two MCHT-1/26 cells (mouse osteoblast cell line) were plated out in a 96 well plate the night before at 4500 cells/well. Cells were stimulated with serial dilution of BMP-2 in a range 0-1000 ng/ml in the presence or absence of 3 dilutions of peptide SEQ ID NO: 6 at 16, 160 and 800 nM. After incubation at 37° C. for 3 days, cells were lysed with lysis buffer (250 mM NaCl, 25 mM MgCl2 and 100 mM Tris, pH=8.0) overnight at 37° C. One third of the lysate was used for alkaline phosphatase assay with p-nitrophenylphosphate. The reaction was carried out at 37° C. for one to two hours. Next, the plate was read on an absorbance plate reader at a wavelength of 405 nm.

For “SEQ ID NO: 34: a fragment of SEQ ID NO: 6, shown in FIG. 12 (AGRDSFNLLTS)”, the “binding to BMP-2 in mutant phage ELISA” value with BMP-2 is reported as “important for binding to BMP-2”.
As for “SEQ ID NO: 4: affinity peptide toward BMP-2 identified by pIX phage display, sequence in FIG. 1 (AGFRWWHTQPAHTLSYT)”, the “cross-reactivity with hIgG” value in the experiment on hIgG is “binds to both hIgG and HSA”. Moreover, in experiment [1], the “cross-reactivity with HSA” value was “binds to both hIgG and HSA”.
On to AGYTSFALLKSAESTLP [SEQ ID NO: 3], for which, at biotinylated BMP-2, the “ranking according to concentration-dependent binding to BMP-2” value (“ranking according” below) is on record as “SEQ ID NO: 6>SEQ ID NO: 3>SEQ ID NO: 2>SEQ ID NO: 1”.
Turning to AGRDSFNLLTSSPLPST [SEQ ID NO: 6], the “ranking according” value at biotinylated BMP-2 is on record as “SEQ ID NO: 6>SEQ ID NO: 3>SEQ ID NO: 2>SEQ ID NO: 1”. Moreover, the “effect on the ALP production of mouse osteoblasts” value in experiment [2] is “minimal effect”.
As for “SEQ ID NO: 33: a fragment of SEQ ID NO: 3, shown in FIG. 12 (AGYTSFALLKS)”, in the experiment with BMP-2, the “binding to BMP-2 in mutant phage ELISA” value was “important for binding to BMP-2”.
Turning to “SEQ ID NO: 1: affinity peptide toward BMP-2 identified by pIX phage display, sequence in FIG. 1 (AGLPLQSMSRLSYDSLS)”, in the experiment with biotinylated BMP-2, the “ranking according” value is given as “SEQ ID NO: 6>SEQ ID NO: 3>SEQ ID NO: 2>SEQ ID NO: 1”.
On the same count and under the same terms, with “SEQ ID NO: 2: affinity peptide toward BMP-2 identified by pIX phage display, sequence in FIG. 1 (AGPPGPYIAASAFLALK)” the entry was “SEQ ID NO: 6>SEQ ID NO: 3>SEQ ID NO: 2>SEQ ID NO: 1”.
